Measured values: US20020031761A1, “Binding moieties for human parvovirus B19” (priority 1998, published 2002)
Positions of bridges follow the written chain, without caps; N, C: chain ends. No end group written: not given here.

How the values were obtained:
[1] = target: parvovirus B19 capsid proteins VP1-VP2 (Human parvovirus B19, UniProt P07299); assay: Batch depletion of B19 capsid proteins from solution by immobilized peptide affinity media, supernatant ELISA; type: binding; settings: peptide immobilized on formyl 750-M resin; 1 hour at room temperature; compared with blank media; ELISA at 5-minute time point
Experimental: The two peptide ligands were immobilized on an aldehyde-functional methacrylate resin support (TosoHaas formyl 750-M; Montgomeryville, Pa.). The peptides were first weighed and dissolved into immobilization buffer (100 mM NaOAc, 150 mM NaCi, 0.1% Tween 20, pH 5.0). A sample of the dissolved peptides was taken for concentration analysis. The chromatography media was measured and washed twice with immobilization buffer. The media and peptide were mixed together and tumbled overnight at room temperature. After the reaction, the supernatant was analyzed for residual peptide and the resultant B19 affinity media was washed with deionized water, 1M NaCl, Tris buffer with 1M NaCl, and twice with PBS. The immobilization data are set forth below:
These parvovirus B19 affinity media were evaluated for the ability of the immobilization ligand to recognize and bind to parvovirus B19 capsid proteins VP1-VP2. Each of the prepared media was evaluated for its ability to deplete a solution of parvovirus B19 capsid proteins as compared to a blank control (media only). […] The capsid protein stock solution was prepared by diluting 30 μl of the purified capsid protein solution (Absorbance at 280 nm=2) with 320 μl of stabilizing buffer. […]
Each sample was analyzed with a standard ELISA for the presence or absence of B19 capsid proteins at ten-fold serial dilution into stabilizing buffer. […]

VP1-VP2 = VP1-VP2 (Human parvovirus B19, UniProt P07299); assay: Relative binding ELISA, constant phage against decreasing amounts of VP1-VP2; settings: among the 18 selected phage isolates
Experimental: (§1) Based on the ELISA data and the sequence similarities within each library, the 18 isolates (Tables 1-3) were selected and evaluated further with respect to their binding characteristics to VP1-VP2. Relative binding of each isolate was studied by ELISA. Each selected phage isolate, held at a constant amount, was contacted with decreasing amounts per well of VP1-VP2, the amounts coating each dextrin well varying from 2 μl down to 0.001 μl. Bound phage were detected as described before using polyclonal anti-phage antibody. […] Using VP1-VP2 at 1:10 dilution as an arbitrary point, a value for the signal was interpolated, and the relative binding strengths are reflected in Tables 1-3, above.

[2] = target: T1, purified, recombinant parvovirus B19 capsid proteins VP1 and VP2 (VP1-VP2) (human parvovirus B19, UniProt P07299 1-781; P07299 1-554); assay: phage ELISA, constant phage against decreasing VP1-VP2 coat; normalized signal interpolated at 1:10 dilution of VP1-VP2
T1 construct: Surrogate target: partially purified/purified recombinant VP1 + VP2 preparation; Made by methods of US 5,498,413 or WO 91/12269
Experimental: (§2) From convergent screens of phage display libraries, eluted phage were propagated and 376 phage isolates were selected randomly and individually tested for binding to VP1-VP2 by standard ELISA techniques, using a polyclonal anti-phage antibody to detect bound phage. Briefly, VP1-VP2 (2 μl per well) was coated on dextrin plates, blocked with BSA, and individual phage isolates were added to the wells (50 μl, 10⁹ pfu per well). After washing, bound phage were incubated with the detection anti-phage antibodies (100 μl per well HRP-conjugated anti-M13 antibody in PBS-Tween (Pharmacia Inc.)). Wild type phage, displaying no non-phage peptide, were employed as controls. The bound antibody was detected by adding 100 μl per well of two-component TMB (tetramethylbenzidine; Kirkegaard & Perry).
as §1

[3] = target: T1, purified, recombinant parvovirus B19 …; assay: phage ELISA; VP1-VP2 coated on dextrin plates, HRP anti-M13 detection
Experimental: as §2

In the case of “AEGTGDFCWLWPAHSCHDPGPEGGGS (cysteine pairing not given here) [H03-TN09]”, the “depletion / clearing of B19 capsid proteins from solution” value [1] is reported as “able to effectively bind parvovirus B19 capsid proteins and clear them from solution”.

With “AEGTGDFFCSFWHGGCDDDPGPEGGGS (cysteine pairing not given here) [A01-TN8]” the “depletion / clearing of B19 capsid proteins from solution” value [1] was “able to effectively bind parvovirus B19 capsid proteins and clear them from solution” and the “ranking of relative binding strength to VP1-VP2” value (VP1-VP2) was “two highest-ranking isolates”.

B1: TN7 isolate A07 (peptide, not shown: large carriers)
peptide: FFCGFWHDCHP
modifications: disulfide 3-9 (inferred); also: displayed on M13 phage, coat protein fusion and flanking residues not given here
notes: Tested as phage isolate displaying the peptide (TN7 library)
Molecule B1 has a relative binding [2] of 27 and an ELISA signal [3] of 0.7.

B2: TN7 isolate B11 (peptide, not shown: large carriers)
peptide: FFCALWPSCHH
modifications: disulfide 3-9 (inferred); also: displayed on M13 phage, coat protein fusion and flanking residues not given here
notes: as for B1
For B2, the relative binding [2] was 31 and the ELISA signal [3] was 0.5.

B3: TN7 isolate B12 (peptide, not shown: large carriers)
peptide: LFCHFWYNCDF
modifications: disulfide 3-9 (inferred); also: displayed on M13 phage, coat protein fusion and flanking residues not given here
notes: as for B1
For B3, the relative binding [2] was 29 and the ELISA signal [3] was 0.7.

B4: TN9 isolate E03 (peptide, not shown: large carriers)
peptide: FCHLWWPFQCA
modifications: disulfide 2-10 (inferred); also: displayed on M13 phage, coat protein fusion and flanking residues not given here
notes: Tested as phage isolate displaying the peptide (TN9 library)
In the case of B4, the relative binding [2] is reported as 40 and the ELISA signal [3] is reported as 0.8.

B5: TN9 isolate A06 (peptide, not shown: large carriers)
peptide: FCQLWWPFQCA
modifications: not fully specified (bridges); printed as Phe-Cys-Gln-Leu-Trp-Trp-Pro-Phe-Gln-Cys-Ala; cysteine pairing not given here
notes: Tested as phage isolate (TN9 library)
With B5 the ELISA signal [3] was 0.7.

B6: A01-TN8 phage isolate (peptide, not shown: large carriers)
peptide: FFCSFWHGGCDD
modifications: disulfide 3-10 (inferred); also: displayed on M13 phage, coat protein fusion and flanking residues not given here
notes: Tested as phage isolate displaying the peptide (TN8 library); The synthetic peptide form is a separate molecule; also called TN8 isolate A01
B6 was tested, and the relative binding [2] was 52 and the ELISA signal [3] was 1.6.

B7: TN7 isolate E11 (peptide, not shown: large carriers)
peptide: FCRFWYGCHP
modifications: disulfide 2-8 (inferred); also: displayed on M13 phage, coat protein fusion and flanking residues not given here
notes: Tested as phage isolate displaying the peptide (TN7 library); First template position printed as '-' (10 residues)
With B7 the relative binding [2] was 33 and the ELISA signal [3] was 0.6.

B8: TN8 isolate D06 (peptide, not shown: large carriers)
peptide: HFCHFWFGGCPH
modifications: disulfide 3-10 (inferred); also: displayed on M13 phage, coat protein fusion and flanking residues not given here
notes: Tested as phage isolate displaying the peptide (TN8 library)
B8 gave a relative binding [2] of 40 and an ELISA signal [3] of 1.3.

B9: TN7 isolate D11 (peptide, not shown: large carriers)
peptide: LFCSFWYNCDA
modifications: disulfide 3-9 (inferred); also: displayed on M13 phage, coat protein fusion and flanking residues not given here
notes: as for B1
Work on B9 yielded a relative binding [2] of 35 and an ELISA signal [3] of 0.9.

B10: TN7 isolate F12 (peptide, not shown: large carriers)
peptide: LFCSFWYNCDD
modifications: disulfide 3-9 (inferred); also: displayed on M13 phage, coat protein fusion and flanking residues not given here
notes: as for B1
B10 gave an ELISA signal [3] of 0.9.

B11: TN7 isolate C11 (peptide, not shown: large carriers)
peptide: FFCQYWYNCD
modifications: disulfide 3-9 (inferred); also: displayed on M13 phage, coat protein fusion and flanking residues not given here
notes: Tested as phage isolate displaying the peptide (TN7 library); Last template position printed as '-' (10 residues)
In the case of B11, the relative binding [2] is reported as 26 and the ELISA signal [3] is reported as 0.7.

B12: H03-TN9 phage isolate (peptide, not shown: large carriers)
peptide: FCWLWPAHSCH
modifications: disulfide 2-10 (inferred); also: displayed on M13 phage, coat protein fusion and flanking residues not given here
notes: Tested as phage isolate displaying the peptide (TN9 library); The synthetic peptide form is a separate molecule; also called TN9 isolate H03
Molecule B12 has a relative binding [2] of 85 and an ELISA signal [3] of 0.8.

B13: TN9 isolate F01 (peptide, not shown: large carriers)
peptide: LCPAHWQFWCD
modifications: disulfide 2-10 (inferred); also: displayed on M13 phage, coat protein fusion and flanking residues not given here
notes: as for B4
Molecule B13 has an ELISA signal [3] of 0.5.

B14: TN7 isolate A12 (peptide, not shown: large carriers)
peptide: FSCLWFPFCPD
modifications: disulfide 3-9 (inferred); also: displayed on M13 phage, coat protein fusion and flanking residues not given here
notes: as for B1
B14 showed a relative binding [2] of 28 and an ELISA signal [3] of 0.5.

B15: TN7 isolate H09 (peptide, not shown: large carriers)
peptide: LFCRFWYNCSA
modifications: disulfide 3-9 (inferred); also: displayed on M13 phage, coat protein fusion and flanking residues not given here
notes: as for B1
With B15 the ELISA signal [3] was 0.6.

B16: TN9 isolate D01 (peptide, not shown: large carriers)
peptide: FCWLWPSSDCF
modifications: disulfide 2-10 (inferred); also: displayed on M13 phage, coat protein fusion and flanking residues not given here
notes: as for B4
For B16, the relative binding [2] was 36 and the ELISA signal [3] was 0.7.

B17: TN8 isolate A05 (peptide, not shown: large carriers)
peptide: AFCHFWFHGCDD
modifications: disulfide 3-10 (inferred); also: displayed on M13 phage, coat protein fusion and flanking residues not given here
notes: as for B8
B17 gave a relative binding [2] of 30 and an ELISA signal [3] of 1.3.
